Positions count from the first letter of the chain named. Names may count otherwise. Like-named read-outs stand apart in the source and are kept apart here. Values belong to the binder of their own block, whether it stands above or below them.
Assays:
[1] = target: T1, human FcγRIIb extracellular domain with C-terminal His tag (human, UniProt P31994 43-217); test: SPR (Biacore)
T1 construct: extracellular domain; also called FcgRIIb
T1 sequence (looked up): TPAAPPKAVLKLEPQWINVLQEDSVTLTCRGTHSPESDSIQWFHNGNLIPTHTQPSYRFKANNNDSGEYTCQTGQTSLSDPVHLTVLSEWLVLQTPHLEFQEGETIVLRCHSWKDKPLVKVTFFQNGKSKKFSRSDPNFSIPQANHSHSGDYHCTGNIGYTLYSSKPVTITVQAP

[2] = target: T2, human FcγRIa extracellular domain with C-terminal His tag (human, UniProt P12314 16-292); test: SPR (Biacore)
T2 construct: extracellular domain; also called FcgRIa
T2 sequence (P12314 16-292): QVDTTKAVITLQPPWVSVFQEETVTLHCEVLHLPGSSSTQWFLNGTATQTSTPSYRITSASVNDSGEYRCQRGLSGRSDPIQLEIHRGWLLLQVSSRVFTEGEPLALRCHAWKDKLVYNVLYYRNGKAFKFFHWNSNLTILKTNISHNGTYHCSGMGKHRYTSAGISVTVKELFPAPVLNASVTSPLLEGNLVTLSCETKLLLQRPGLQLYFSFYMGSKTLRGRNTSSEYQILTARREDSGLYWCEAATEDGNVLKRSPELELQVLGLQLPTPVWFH

[3] = target: T3, human FcγRIIb extracellular domain with C-terminal His tag (human, UniProt P31994 43-217); test: SPR (Biacore), antibody captured, FcγR analyte
T3 construct: extracellular domain; not shown: His tag at the C terminus
T3 sequence (looked up): T1 sequence (looked up)

[4] = target: T4, human FcγRIIa type R (R131) extracellular domain with C-terminal His tag (human, UniProt P12318 34-217); test: SPR (Biacore), antibody captured, FcγR analyte
T4 construct: extracellular domain; also called FcγRIIaR; not shown: His tag at the C terminus
T4 sequence (looked up): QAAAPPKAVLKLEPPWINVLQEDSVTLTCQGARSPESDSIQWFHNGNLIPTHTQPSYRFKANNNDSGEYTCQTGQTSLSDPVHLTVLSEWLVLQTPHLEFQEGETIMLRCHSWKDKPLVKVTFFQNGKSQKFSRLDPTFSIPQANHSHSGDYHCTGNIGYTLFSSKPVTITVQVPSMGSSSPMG

[5] = target: T4, human FcγRIIa type R (R131) …; test: SPR (Biacore), antibody captured, FcγR analyte; remark: listed apart in the source
[6] = target: T5, human FcγRIIb extracellular domain with C-terminal His tag (human, UniProt P31994 43-217); test: SPR, Ref. Ex. 25
T5 construct: extracellular domain; for crystals expressed with kifunensine and trimmed with Endo F1; also called FcγRIIb extracellular region
T5 sequence (looked up): T1 sequence (looked up)

[7] = target: T6, human FcγRIIa type R extracellular domain with C-terminal His tag (human, UniProt P12318 34-217); test: SPR, Ref. Ex. 25
T6 construct: extracellular domain; also called FcγRIIaR; FcγRIIa R
T6 sequence (looked up): T4 sequence (looked up)

[8] = target: T7, human FcγRIIIa type V extracellular domain with C-terminal His tag (human, UniProt P08637 17-208); test: SPR, Ref. Ex. 25
T7 construct: extracellular domain; also called FcγRIIIaV; FcγRIIIa V type
T7 sequence (P08637 17-208 F176V): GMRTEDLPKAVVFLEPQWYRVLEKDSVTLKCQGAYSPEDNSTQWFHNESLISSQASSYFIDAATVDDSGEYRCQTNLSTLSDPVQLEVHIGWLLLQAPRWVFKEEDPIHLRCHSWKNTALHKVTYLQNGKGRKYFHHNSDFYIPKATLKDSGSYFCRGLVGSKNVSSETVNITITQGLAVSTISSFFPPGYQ

[9] = target: T8, human FcγRIIa type H (allotype H131) extracellular domain with C-terminal His tag (human, UniProt P12318 34-217); test: SPR (Biacore), antibody captured, FcγR analyte
T8 construct: extracellular domain; also called FcγRIIaH; FcγRIIa H type; not shown: His tag at the C terminus
T8 sequence (looked up): T4 sequence (looked up) with R134H

[10] = target: T9, human FcγRIa extracellular domain with C-terminal His tag (human, UniProt P12314 16-292); test: SPR (Biacore), antibody captured, FcγR analyte
T9 construct: not shown: His tag at the C terminus
T9 sequence (P12314 16-292): as the sequence (P12314 16-292) above

[11] = target: T10, human FcγRIIIa type V extracellular domain with C-terminal His tag (human, UniProt P08637 17-208); test: SPR (Biacore)
T10 construct: extracellular domain; also called FcγRIIIaV; FcgRIIIaV
T10 sequence (P08637 17-208 F176V): as the sequence (P08637 17-208 F176V) above

[12] = target: T11, human FcγRIIa type H extracellular domain with C-terminal His tag (human, UniProt P12318 34-217); test: SPR (Biacore)
T11 construct: extracellular domain; also called FcγRIIaH; FcgRIIaH
T11 sequence (looked up): T4 sequence (looked up) with R134H

[13] = target: T12, soluble human IL-6 receptor (human, UniProt P08887 20-357); test: SPR (Biacore T100), antibody captured on a Protein A/G chip (CM5), human IL-6 receptor as analyte, 1.2 mM CaCl2, pH 7.4, 37 °C
T12 construct: also called hsIL-6R
T12 sequence: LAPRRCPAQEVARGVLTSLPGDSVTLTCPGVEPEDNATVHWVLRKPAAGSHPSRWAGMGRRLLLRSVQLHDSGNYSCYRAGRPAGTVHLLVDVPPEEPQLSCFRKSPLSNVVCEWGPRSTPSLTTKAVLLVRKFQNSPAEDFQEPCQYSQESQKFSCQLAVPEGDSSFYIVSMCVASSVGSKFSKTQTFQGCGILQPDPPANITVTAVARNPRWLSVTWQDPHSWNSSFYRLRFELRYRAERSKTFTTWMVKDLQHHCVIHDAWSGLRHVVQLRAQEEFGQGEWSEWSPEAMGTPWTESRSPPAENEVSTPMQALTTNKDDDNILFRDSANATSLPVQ
Method: The interaction was analyzed in solutions at 1.2 mM and 3 μM calcium ion concentration, corresponding to high and low calcium ion concentration conditions, respectively. An appropriate amount of Protein A/G (Invitrogen) was immobilized onto a Sensor chip CM5 (GE Healthcare) by an amino coupling method, and antibodies of interest were captured onto the chip. The two types of running buffers used were: 20 mM ACES/150 mM NaCl/0.05% (w/v) Tween20/1.2 mM CaCl₂ (pH 7.4); and 20 mM ACES/150 mM NaCl/0.05% (w/v) Tween20/3 μM CaCl₂ (pH 7.4). These buffers were each used to dilute human IL-6 receptor. All measurements were carried out at 37° C.
Then, 10 mM glycine-HCl (pH 1.5) was injected at a flow rate of 30 μl/min for 30 seconds to regenerate the sensor chip.

B1: IL6R-2B261/IL6R-L (antibody, human IgG1, kappa)
heavy: QVQLQESGPGLVKPSETLSLTCAVSGHSISHDHAWSWVRQPPGEGLEWIGFISYSGITNYNPSLQGRVTISRDNSKNTLYLQMNSLRAEDTAVYYCARSLARTTAMDYWGEGTLVTVSSASTKGPSVFPLAPSSKSTSGGTAALGCLVKDYFPEPVTVSWNSGALTSGVHTFPAVLQSSGLYSLSSVVTVPSSSLGTQTYICNVNHKPSNTKVDKKVEPKSCDKTHTCPPCPAPDLLGGDSVFLFPPKPKDTLMISRTPEVTCVVVDVSHEDPEVKFNWYVDGVEVHNAKTKPREEQDNSTYRVVSVLTVLHQDWLNGKEYKCKVSNKALPAPIEKTISKAKGQPREPQVYTLPPSRDELTKNQVSLTCLVKGFYPSDIAVEWESNGQPENNYKTTPPVLDSDGSFFLYSKLTVDKSRWQQGNVFSCSVMHEALHNHYTQESLSLSP
light: not shown
notes: EU numbering; alterations on IL6R-B3; copies: 2 + 2
Kd [1]: 1000 nM
Kd [2]: 9 nM

B3: IL6R-BP471/IL6R-L (antibody, human IgG1, kappa)
heavy: B1 heavy with G239D, H270D, P273G, A332R, P333S
light: not shown
notes: P331S introduced into IL6R-BP230; copies: 2 + 2
Kd [4]: 800 nM

B4: IL6R-BP084/IL6R-L (antibody, human IgG1, kappa)
heavy: B1 heavy with D235E, D298Y, V325M, A332K
light: not shown
notes: as for B1
Kd [1]: 500 nM
Kd [2]: 7 nM

B7: IL6R-BP514/IL6R-L (antibody, human IgG1, kappa)
heavy: B1 heavy with G239D, H270E, P273G, E274F, D298Y
light: not shown
notes: E272F introduced into IL6R-BP267; copies: 2 + 2
Kd [5]: 3000 nM

B11: IL6R-BP520/IL6R-L (antibody, human IgG1, kappa)
heavy: B1 heavy with G239D, H270E, P273G, E274M, D298Y
light: not shown
notes: E272M introduced into IL6R-BP267; copies: 2 + 2
Kd [5]: 3000 nM

B12: IL6R-PD079/IL6R-L (antibody, human IgG1, kappa)
heavy: B1 heavy with D235E, G239A, M254Y, D298Y, N436Y, E441K
light: not shown
notes: also called P238D/G237A; G237A/P238D; copies: 2 + 2
Kd [6]: 3000 nM
Kd [7]: 32000 nM
Kd [8]: 37000 nM

B14: IL6R-BP348/IL6R-L (antibody, human IgG1, kappa)
heavy: B1 heavy with G239D, S269A, H270E, P273G, D298Y
light: not shown
notes: S267A introduced into IL6R-BP267; copies: 2 + 2
Kd [5]: 700 nM

B15: IL6R-BP237/IL6R-L (antibody, human IgG1, kappa)
heavy: B1 heavy with L236Y, G239D, S269Q, H270D, P273G, K328A, A332K
light: not shown
notes: copies: 2 + 2
Kd [3]: 100 nM

B16: IL6R-BP475/IL6R-L (antibody, human IgG1, kappa)
heavy: B1 heavy with G239D, H270D, P273G, A329G, A332S
light: not shown
notes: A327G and A330S introduced into IL6R-BP230; copies: 2 + 2
Kd [4]: 1000 nM

B19: IL6R-BP241/IL6R-L (antibody, human IgG1, kappa)
heavy: B1 heavy with G239D, H270D, P273G, D298Y, K328D, A332R
light: not shown
notes: copies: 2 + 2
Kd [9]: 9000 nM

B20: IL6R-BP148/IL6R-L (antibody, human IgG1, kappa)
heavy: B1 heavy with L236Y, G239D, D298Y, K328A, A332K
light: not shown
notes: as for B1
Kd [11]: 30000 nM
Kd [12]: 7000 nM

B21: IL6R-BP234/IL6R-L (antibody, human IgG1, kappa)
heavy: B1 heavy with L236Y, G239D, S269Q, H270D, P273G, K328D, A332K
light: not shown
notes: copies: 2 + 2
Kd [9]: 20000 nM

B22: IL6R-PD042/IL6R-L (antibody, human IgG1, kappa)
heavy: B1 heavy with D235E, L236W, M254Y, D298Y, N436Y, E441K
light: not shown
notes: also called P238D/L234W; L234W/P238D; copies: 2 + 2
Kd [6]: 2000 nM
Kd [7]: 16000 nM
Kd [8]: 37000 nM

B24: IL6R-BP180/IL6R-L (antibody, human IgG1, kappa)
heavy: B1 heavy with D235E, G239D, P273G, D298Y, A332K
light: not shown
notes: EU numbering; alterations on IL6R-B3; also called IL6R-BF180/IL6R-L; copies: 2 + 2
Kd [11]: 70000 nM
Kd [2]: 98 nM

B25: 6RC1IgG_019 (antibody, V domains shown)
VH: EVQLVQSGAEVKKPGSSVKVSCKASGGTFSSYAISWVRQAPGQGLEWMGGIIPIFGTANYAQKFQGRVTITADESTSTAYMELSSLRSEDTAVYYCARDRGSGFNWGNYAFDIWGQGFSVTVSS
VL: DIQMTQSPSSLSASVGDRVTITCRASQSIEDDLAWYQQKPGKAPKLLIYEASNLQSGVPSRFSGSGSGTDFTLTISSLQPEDFATYYCQQYDRYPYTFGQGTKVEIKR
binding result [13]: binds

The next lines start with the values.

Kd [3]: 40 nM
B2: IL6R-BP228/IL6R-L (antibody, human IgG1, kappa)
heavy: B1 heavy with D235E, L236Y, G239D, S269Q, H270D, P273G, D298Y, K328D, A332R
light: not shown
notes: copies: 2 + 2

Kd [5]: 2100 nM
B5: IL6R-BP517/IL6R-L (antibody, human IgG1, kappa)
heavy: B1 heavy with G239D, H270E, P273G, E274I, D298Y
light: not shown
notes: E272I introduced into IL6R-BP267; copies: 2 + 2

Kd [2]: 10 nM
B6: IL6R-BP182/IL6R-L (antibody, human IgG1, kappa)
heavy: B1 heavy with P273G, A332K
light: not shown
notes: as for B1

Kd [1]: 40 nM
B8: IL6R-BP151/IL6R-L (antibody, human IgG1, kappa)
heavy: B1 heavy with L236Y, G239D, D298Y, K328A, A332R
light: not shown
notes: as for B1

Kd [4]: 3000 nM
B9: IL6R-BP474/IL6R-L (antibody, human IgG1, kappa)
heavy: B1 heavy with G239D, H270D, P273G, A332S, P333S
light: not shown
notes: A330S and P331S introduced into IL6R-BP230; copies: 2 + 2

Kd [6]: 2000 nM
Kd [7]: 21000 nM
Kd [8]: 43000 nM
B10: IL6R-PD080/IL6R-L (antibody, human IgG1, kappa)
heavy: B1 heavy with D235E, G239D, M254Y, D298Y, N436Y, E441K
light: not shown
notes: also called P238D/G237D; G237D/P238D; copies: 2 + 2

Kd [9]: 6000 nM
Kd [10]: 3 nM
B13: IL6R-BP243/IL6R-L (antibody, human IgG1, kappa)
heavy: B1 heavy with L236Y, G239D, H270D, P273G, D298Y, A332R
light: not shown
notes: copies: 2 + 2

Kd [3]: 60 nM
B17: IL6R-BP239/IL6R-L (antibody, human IgG1, kappa)
heavy: B1 heavy with L236Y, G239D, S269Q, H270D, P273G, K328A, A332R
light: not shown
notes: copies: 2 + 2

Kd [1]: 300 nM
B18: IL6R-BP130/IL6R-L (antibody, human IgG1, kappa)
heavy: B1 heavy with D298Y, V325M, A332K
light: not shown
notes: as for B1

Kd [9]: 7000 nM
B23: IL6R-BP238/IL6R-L (antibody, human IgG1, kappa)
heavy: B1 heavy with L236Y, G239D, H270D, P273G, K328A, A332R
light: not shown
notes: copies: 2 + 2
